Holding throughout (test): SPR
Background: SPR reads the build-up and loss of mass on a sensor chip optically.

Assay [1] concerns the target Human angiostatin kringles 1–5 (K1–5) (human).
For assay [2] the target is unchanged. This is another data set of the same source.
Assay [3] deals with Recombinant yeast F1-ATPase (F1-ATP synthase protein complex) (yeast) (UniProt P07251).
Assay [4] has the same target. This is another data set of the same source.

Several values for one entry are separate records, joined by “and”; a condition that tells them apart may be missing. Identical values can stand only once. Like-named read-outs stand apart in the source and are kept apart here.

The term Kd denotes the free concentration of one partner at which half of the binding sites on the other are occupied at equilibrium, for simple one-to-one binding. The koff is the first-order rate constant of dissociation. A high value points to fast dissociation. For orientation: kon means the second-order rate constant of association. Higher therefore signals faster complex formation. Regarding “Recombinant yeast F1-ATPase (F1-ATP synthase protein complex) (from UniProt P07251 36-545; P00830 34-511; P38077 34-311)”, the Kd in assay [1] lay within 130 to 237 nM. Besides, in assay [2], the Ka was 6.5e+06 M⁻¹ and 5.1e+06 M⁻¹; the Kd was 154 nM and 137 nM and 195 nM; the koff is 0.0002 s⁻¹ and 0.00019 s⁻¹; the association rate constant (kon) was 1300 M⁻¹ s⁻¹ and 960 M⁻¹ s⁻¹.

B1: Pigment epithelium-derived factor (PEDF), human recombinant (ligand)
chain: QNPASPPEEGSPDPDSTGALVEEEDPFFKVPVNKLAAAVSNFGYDLYRVRSSTSPTTNVLLSPLSVATALSALSLGAEQRTESIIHRALYYDLISSPDIHGTYKELLDTVTAPQKNLKSASRIVFEKKLRIKSSFVAPLEKSYGTRPRVLTGNPRLDLQEINNWVQAQMKGKLARSTKEIPDEISILLLGVAHFKGQWVTKFDSRKTSLEDFYLDEERTVRVPMMSDPKAVLRYGLDSDLSCKIAQLPLTGSMSIIFFLPLKVTQNLTLIEESLTSEFIHDIDRELKTVQAVLTVPKLKLSYEGEVTKSLQEMKLQSLFDSPDFSKITGKPIKLTQVEHRAGFEWNEDGAGTTPSPGLQPAHLTFPLDYHLNQPFIFVLRDTDTGALLFIGKILDPRGP
Broadly, the IC50 is the concentration at which inhibition is half-maximal. Consider B1, for which the values for the IC50 in assay [3] and in assay [4] were 17.3 nM and 11.8 nM, respectively.

The values above are taken from article PMC2929661.
